Test results as given in patent publication US20260318927 (published 2026).

T1: MR-proADM (human)
T1 chain: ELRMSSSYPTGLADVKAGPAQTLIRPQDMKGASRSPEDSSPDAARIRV


Tests used:
[1] = biological target: T1, MR-proADM; experiment: SPR, 25C pH 7.4, Ab 3-d
[2] = biological target: T1, MR-proADM; experiment: SPR, 25C pH 7.4, Ab 3-c
[3] = biological target: T1, MR-proADM; experiment: SPR, 25C pH 7.4, Ab 3-a
[4] = biological target: T1, MR-proADM; experiment: SPR, antigen 1
[5] = biological target: T1, MR-proADM; experiment: SPR, antigen 2
[6] = biological target: T1, MR-proADM; experiment: SPR, 25C pH 7.4, Ab 3-b
[7] = biological target: T1, MR-proADM; experiment: SPR, 25C pH 7.4
[8] = biological target: T1, MR-proADM; experiment: SPR, 25C pH 7.4, Ab 2-c
[9] = biological target: T1, MR-proADM; experiment: SPR, 25C pH 7.4, Ab 2-b
[10] = biological target: T1, MR-proADM; experiment: SPR, 25C pH 7.4, Ab 2-a

Kd [1] [nM]	Kd [2] [nM]	Kd [3] [nM]	Kd [4] [nM]	Kd [5] [nM]	Kd [6] [nM]	Kd [7] [nM]	Kd [8] [nM]	Kd [9] [nM]	Kd [10] [nM]	Binder
20.1	18.8	14.8	13.9	17.4	17.1	–	–	–	–	Ab3 (antibody, V domains shown) VH: EVQLQQSGPELVRPGASVKISCKASGYSFTDYFMHWMKQSHVKSLEWIGRLNPYNGATNYNQNFKDKATLTVDKSSSTAYMELHSLTSEDSAVYYCLSFTTPPEAYWGQGTLVTVSA VL: EIVMTQAAFSNPVTLGTSASISCRSNKSLLYSNGITYLFWYLQRPGQSPQLLIYQMSNLASGVPDRFSGSGSGTDFTLRISRVEAEDVGVYYCAQNLELPWTFGGGTKLEIK
–	–	–	6.47	101	–	247	–	–	–	Ab5 (antibody, V domains shown) VH: EVQLQQSGPELVKPGASVKISCKASGYSFTDYYMHWVKQSHVKSLEWIGRINPYNGATKYNQNFKDKASLTVDKSSSTAYMELHSLTSEDSAVYYCTRRYDNDDGDYWGQGTTLRVSS VL: DIVMTQAAFSNPVTLGTSASISCRSSKSLLYSNGITYLYWYLQKPGQSPQLLIYQMSNLASGVPDRFSSSGSGTDFTLRISRVEAEDVGVYYCAQNLELPWTFGGGTKLEIK
–	–	–	2.49	2.57	–	–	2.82	3.02	2.97	Ab2 (antibody, V domains shown) VH: QIQLVQSGPELRKPGETVKISCKASGYTFTDYSMHWVKQVPGKVLKWMGWINTETGEPTYVDDFKGRFAFSLETSASTAYLRINILKNEDAATYFCATNFDYWGQGTTLTVSS VL: not shown
